US20140086913A1 (Gilead, published 2014)

Legend:
[1] = target: T1, human ECD-DDR1-His protein (human, UniProt Q08345 21-416); test: ELISA, coated antigen, apparent KD
T1 construct: also called huDDR1-ECD-His; DDR1ECD-6Xhis; not shown: His tag
How it was run: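 Plates coated overnight at 4° C with 2 μg/mL purified tagged DDR1 ECD protein, BSA-blocked; serially diluted murine anti-DDR1 mAbs bound 1 hr at room temperature, detected with anti-mouse IgG-HRP and TMB (OD 450). Apparent KD taken as C-parameter of 4-parameter logistic fit of OD versus antibody concentration.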

[2] = target: human DDR1 (isoform B) stably expressed on HEK293 cells (human) (UniProt Q08345); test: flow cytometry, HEK293/hDDR1
[3] = target: DDR1 with a ProLink Tag (PK) in engineered U20S cells (DiscoveRx), Q08345; test: cell-based or functional assay
[4] = target: T2, DDR1ECD-Fc (R&D Systems, Catalog #2396-DR) (human, UniProt Q08345 21-416); test: ELISA, coated antigen, apparent KD; human ECD-DDR1-Fc coated on the plate, not the His-tagged or mouse antigen
T2 construct: range 21-416; construct as described for the bought immunogen; also called human ECD-DDR1-Fc; Fc-ECD-DR1; not shown: human IgG1, Pro100-Lys330
Experimental: In this study, ELISA was used to determine the affinity of murine anti-DDR1 monoclonal antibodies to the extracellular domain (ECD) of either human or murine DDR1. A 96-well MaxiSorb ELISA plates (Nunc) were coated with 2 μg/mL of one of three purified recombinant tagged proteins: human ECD-DDR1-His protein, human ECD-DDR1-Fc, or mouse ECD-DDR1-Fc overnight at 4° C. The next day, the plates were blocked with 5% bovine serum albumin (BSA, Jackson Immunoresearch) prior to the addition of serially diluted anti-DDR1 monoclonal antibodies. Antibodies were incubated for 1 hr at room temperature. The binding of antibody to the antigen was detected by incubating samples with anti-mouse IgG-HRP (horse radish peroxidase) secondary detection antibody (Jackson Immunoresearch) for 1 hr. After a washing step, 3,3′,5,5″-tetramethylbenzidine (TMB) reagent was added for HRP to produce a colorimetric signal. The reaction was stopped by addition of 1M hydrochloric acid after 2 minutes and measured for absorbance (optical density, OD) at 450λ on a Molecular Devices plate reader. The OD values were plotted against antibody concentration and fitted using a using 4-parameter logistic equation in SoftMax software (Molecular Devices). The apparent affinity constant (KD) was taken from the C-parameter of the equation (y=(A−D)/(1+(x/C)̂B)+D). […]

[5] = target: DDR1 endogenously expressed on human cancer cell lines (T47D, HCT-116, A431) (human) (UniProt Q08345); test: flow cytometry, T47D cells
[6] = target: T3, mouse ECD-DDR1-Fc (mouse; human, UniProt Q03146 22-414); test: ELISA, coated antigen
T3 construct: also called mouse DDR1-ECD; wild-type mouse DDR1-ECD; not shown: human IgG1 Fc of the vector pFuse-hIgG1-Fc1 (Invivogen)
T3 sequence: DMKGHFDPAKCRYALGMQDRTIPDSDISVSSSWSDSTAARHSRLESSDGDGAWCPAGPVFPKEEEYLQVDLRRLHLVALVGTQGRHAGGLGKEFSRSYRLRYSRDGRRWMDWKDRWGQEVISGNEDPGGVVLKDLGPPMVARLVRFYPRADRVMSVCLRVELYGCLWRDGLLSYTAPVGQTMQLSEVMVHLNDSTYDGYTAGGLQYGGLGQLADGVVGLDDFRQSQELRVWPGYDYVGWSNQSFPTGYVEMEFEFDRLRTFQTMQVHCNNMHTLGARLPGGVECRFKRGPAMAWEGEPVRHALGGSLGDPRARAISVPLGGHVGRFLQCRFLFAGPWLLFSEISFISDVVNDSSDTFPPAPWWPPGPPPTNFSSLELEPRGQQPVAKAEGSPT
Experimental: In this study, ELISA was used to determine the affinity of murine anti-DDR1 monoclonal antibodies to the extracellular domain (ECD) of either human or murine DDR1. A 96-well MaxiSorb ELISA plates (Nunc) were coated with 2 μg/mL of one of three purified recombinant tagged proteins: human ECD-DDR1-His protein, human ECD-DDR1-Fc, or mouse ECD-DDR1-Fc overnight at 4° C. The next day, the plates were blocked with 5% bovine serum albumin (BSA, Jackson Immunoresearch) prior to the addition of serially diluted anti-DDR1 monoclonal antibodies. Antibodies were incubated for 1 hr at room temperature. The binding of antibody to the antigen was detected by incubating samples with anti-mouse IgG-HRP (horse radish peroxidase) secondary detection antibody (Jackson Immunoresearch) for 1 hr. After a washing step, 3,3′,5,5″-tetramethylbenzidine (TMB) reagent was added for HRP to produce a colorimetric signal. The reaction was stopped by addition of 1M hydrochloric acid after 2 minutes and measured for absorbance (optical density, OD) at 450λ on a Molecular Devices plate reader. The OD values were plotted against antibody concentration and fitted using a using 4-parameter logistic equation in SoftMax software (Molecular Devices). The apparent affinity constant (KD) was taken from the C-parameter of the equation (y=(A−D)/(1+(x/C)̂B)+D). The apparent affinity constants were summarized (in some cases shown as average values) in Table 10 below. Lower value indicates higher binding affinity of the antibody to the antigen.

[7] = target: DDR1 endogenously expressed on human cancer cell lines (T47D, HCT-116, A431) (human) (UniProt Q08345); test: cell-based or functional assay
[8] = target: T4, human DDR2 stably expressed on HEK293 cells (human, UniProt Q16832 22-855); test: flow cytometry, HEK293/hDDR2
T4 construct: whole, on cells; also called hDDR2
T4 sequence (looked up): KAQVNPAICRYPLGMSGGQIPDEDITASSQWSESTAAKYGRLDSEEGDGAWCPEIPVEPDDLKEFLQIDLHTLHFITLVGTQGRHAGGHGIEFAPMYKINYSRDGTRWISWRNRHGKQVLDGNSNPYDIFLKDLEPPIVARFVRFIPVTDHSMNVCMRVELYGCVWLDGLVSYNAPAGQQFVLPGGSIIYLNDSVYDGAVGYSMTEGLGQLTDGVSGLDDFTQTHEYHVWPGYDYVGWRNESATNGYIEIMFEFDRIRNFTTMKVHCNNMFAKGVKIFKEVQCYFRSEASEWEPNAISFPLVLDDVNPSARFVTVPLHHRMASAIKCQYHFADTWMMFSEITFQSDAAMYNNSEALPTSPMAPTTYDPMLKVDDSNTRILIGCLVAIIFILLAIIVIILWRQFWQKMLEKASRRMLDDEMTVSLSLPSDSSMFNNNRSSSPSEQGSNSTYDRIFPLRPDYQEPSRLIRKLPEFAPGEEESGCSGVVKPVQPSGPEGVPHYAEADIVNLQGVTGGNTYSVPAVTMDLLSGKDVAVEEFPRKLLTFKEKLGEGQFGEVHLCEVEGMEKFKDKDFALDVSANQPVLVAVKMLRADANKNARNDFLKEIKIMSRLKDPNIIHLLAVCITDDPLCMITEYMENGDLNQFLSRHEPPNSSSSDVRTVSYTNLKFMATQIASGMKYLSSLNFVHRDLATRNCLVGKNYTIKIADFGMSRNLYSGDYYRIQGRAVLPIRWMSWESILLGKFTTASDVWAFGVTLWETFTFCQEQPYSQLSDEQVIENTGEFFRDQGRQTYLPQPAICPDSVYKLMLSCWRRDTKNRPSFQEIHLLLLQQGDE
How it was run: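 Anti-DDR1 mAbs or isotype controls (2 μg per 1×10⁶ cells) were incubated with the stably transfected HEK293 cells at 4 °C for 1 hr, then detected with anti-IgG-PE at 4 °C for 1 hr. Binding was read as flow-cytometry MFI, with vector-only HEK293 background subtracted.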

[9] = target: DDR1 endogenously expressed on human cancer cell lines (T47D, HCT-116, A431) (human) (UniProt Q08345); test: flow cytometry, HCT116 cells

Sequence of human DDR1 (isoform B) stably expressed on HEK293 cells (human) (Q08345 19-913): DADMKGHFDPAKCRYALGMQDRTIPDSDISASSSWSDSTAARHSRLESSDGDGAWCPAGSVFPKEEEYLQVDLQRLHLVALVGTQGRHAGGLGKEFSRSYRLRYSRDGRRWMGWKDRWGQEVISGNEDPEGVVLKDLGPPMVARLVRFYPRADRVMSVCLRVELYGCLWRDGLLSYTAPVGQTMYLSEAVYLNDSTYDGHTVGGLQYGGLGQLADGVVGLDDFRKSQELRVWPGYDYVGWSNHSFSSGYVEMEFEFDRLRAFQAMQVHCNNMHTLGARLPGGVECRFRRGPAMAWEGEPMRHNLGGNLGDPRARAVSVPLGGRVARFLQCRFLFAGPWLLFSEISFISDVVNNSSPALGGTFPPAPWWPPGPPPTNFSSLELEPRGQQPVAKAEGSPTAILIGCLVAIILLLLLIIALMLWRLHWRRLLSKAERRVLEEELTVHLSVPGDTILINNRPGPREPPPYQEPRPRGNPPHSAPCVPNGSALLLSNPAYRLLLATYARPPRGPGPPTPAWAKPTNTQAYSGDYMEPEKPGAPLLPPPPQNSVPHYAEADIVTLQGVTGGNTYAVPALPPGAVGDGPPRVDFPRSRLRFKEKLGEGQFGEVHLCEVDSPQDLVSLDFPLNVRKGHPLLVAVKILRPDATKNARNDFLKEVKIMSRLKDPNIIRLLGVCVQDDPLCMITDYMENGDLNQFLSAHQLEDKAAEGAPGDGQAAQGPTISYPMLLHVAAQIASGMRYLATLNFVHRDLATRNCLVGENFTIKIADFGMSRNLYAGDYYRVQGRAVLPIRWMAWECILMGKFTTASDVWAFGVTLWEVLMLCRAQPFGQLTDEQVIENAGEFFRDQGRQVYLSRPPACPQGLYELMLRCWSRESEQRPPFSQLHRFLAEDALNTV

B1: AB2002 (antibody, V domains shown)
VH: EVNLVESGGGLVKPGGSLKLSCAASGFTFSTYAMSWVRQTPEKRLEWVASISSGGITHYPDSMKGRFTVSRDNARNILYLQMRSLRSEDTAKYYCARGRSSMIPDYWGQGTSVSVSS
VL: DIVMTQSHKFMSTSVGDRVSITCKASQDVGTAVAWYQQKPGQSPKLLIYWASTRHTGVPDRFTGSGSGTDFTLTISNVQSEDLADYFCQQYSTYPLTFGAGTKLELKR
notes: mouse hybridoma mAb
For B1, the Kd [1] was 0.233 nM, the MFI [2] was 7240 MFI and the Mean EC50, DDR1 Tyr513 phosphorylation assay (U20S) [3] was 4.5 nM. The Kd [4] was 0.268 nM, the MFI [5] was 3590 MFI and the binding result [6] was “no binding”. It also gave an EC50, DDR1 phospho-specific ELISA (T47D) [7] of 1.07 nM, an EC50, cluster formation assay (A431 cells) [7] of 9.72 nM and a Maximal inhibition, DDR1 phospho-specific ELISA (T47D) [7] of 100%. The NPI of cluster formation at 66 nM (A431 cells) [7] was 102%, the MFI [8] was 170 MFI and the MFI [9] was 1010 MFI.
